In US20180086841A1:
Blank lines part the entries; values can stand above or below the substance they belong to.

Tests used:
Q41A [1] = experiment: flow cytometry on CHO-K1 transfectants, right sub-column
Q91A [2] = experiment: as above
S63A [3] = experiment: as above
I46A [4] = experiment: as above
H36A [5] = experiment: as above
K38A [6] = experiment: as above
R87A [7] = experiment: as above
R93A [8] = experiment: as above
G89A [9] = experiment: as above
W13A [10] = experiment: as above
H60A [11] = experiment: as above
D43A [12] = experiment: as above
N88A [13] = experiment: as above
P8A [14] = experiment: as above
R37A [15] = experiment: as above
K31A [16] = experiment: as above
V30A [17] = experiment: as above
P44A [18] = experiment: as above
R10A [19] = experiment: as above
G16A [20] = experiment: as above
E9A [21] = experiment: as above
F28A [22] = experiment: as above
V49A [23] = experiment: as above
W90A [24] = experiment: as above
K17A [25] = experiment: flow cytometry on CHO-K1 transfectants, left sub-column, cell hatched (loss of binding)
D32A [26] = experiment: as above
Q15A [27] = experiment: as above
K17A [28] = experiment: flow cytometry on CHO-K1 transfectants, right sub-column, cell hatched (loss of binding)
D32A [29] = experiment: as above
Q15A [30] = experiment: as above
Q41A [31] = experiment: flow cytometry on CHO-K1 transfectants, left sub-column
Q91A [32] = experiment: as above
S63A [33] = experiment: as above
I46A [34] = experiment: as above
H36A [35] = experiment: as above
K38A [36] = experiment: as above
R87A [37] = experiment: as above
R93A [38] = experiment: as above
G89A [39] = experiment: as above
W13A [40] = experiment: as above
H60A [41] = experiment: as above
D43A [42] = experiment: as above
N88A [43] = experiment: as above
P8A [44] = experiment: as above
R37A [45] = experiment: as above
K31A [46] = experiment: as above
V30A [47] = experiment: as above
P44A [48] = experiment: as above
R10A [49] = experiment: as above
G16A [50] = experiment: as above
E9A [51] = experiment: as above
F28A [52] = experiment: as above
V49A [53] = experiment: as above
W90A [54] = experiment: as above
K17A [55] = experiment: flow cytometry on CHO-K1 transfectants, right sub-column
D32A [56] = experiment: as above
Q15A [57] = experiment: as above
K38A [58] = experiment: flow cytometry on CHO-K1 transfectants, left sub-column, cell hatched (loss of binding)
R37A [59] = experiment: as above
K38A [60] = experiment: flow cytometry on CHO-K1 transfectants, right sub-column, cell hatched (loss of binding)
R37A [61] = experiment: as above
K17A [62] = experiment: flow cytometry on CHO-K1 transfectants, left sub-column
D32A [63] = experiment: as above
Q15A [64] = experiment: as above
human CD27 (human) [65] = target: human CD27 (human) (UniProt P26842); experiment: flow cytometry on CHO-K1 cells transfected with CD27 (empty vector: + 5.32)
[66] = target: human CD27 (A59T) (human) (UniProt P26842); experiment: flow cytometry on CHO-K1 cells transfected with CD27 A59T (empty vector: GM FITC 212)
[67] = target: human CD27 (A59T) (human) (UniProt P26842); experiment: flow cytometry on CHO-K1 cells transfected with CD27 A59T (empty vector: + 5.32)
human CD27 (human) [68] = target: human CD27 (human) (UniProt P26842); experiment: flow cytometry on CHO-K1 cells transfected with CD27 (empty vector: GM FITC 212)

G16A, sequence (receptor chain, as listed by the source G16A G16A limits assumed): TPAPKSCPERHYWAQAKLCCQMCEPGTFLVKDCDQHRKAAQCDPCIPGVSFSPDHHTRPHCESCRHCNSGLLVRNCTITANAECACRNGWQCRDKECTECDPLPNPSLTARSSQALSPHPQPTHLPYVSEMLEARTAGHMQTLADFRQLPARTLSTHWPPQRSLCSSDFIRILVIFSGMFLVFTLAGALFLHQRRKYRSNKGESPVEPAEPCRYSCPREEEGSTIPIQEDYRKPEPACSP
V49A, sequence (receptor chain, as listed by the source V49A V49A limits assumed): as the sequence (receptor chain, as listed by the source G16A G16A limits assumed) above, with A16G, V49A counted along it
H36A, sequence (receptor chain, as listed by the source H36A H36A limits assumed): as the sequence (receptor chain, as listed by the source G16A G16A limits assumed) above, with A16G, H36A counted along it
P44A, sequence (receptor chain, as listed by the source P44A P44A limits assumed): as the sequence (receptor chain, as listed by the source G16A G16A limits assumed) above, with A16G, P44A counted along it
P8A, sequence (receptor chain, as listed by the source limits assumed): as the sequence (receptor chain, as listed by the source G16A G16A limits assumed) above, with P8A, A16G counted along it
H60A, sequence (receptor chain, as listed by the source H60A H60A limits assumed): as the sequence (receptor chain, as listed by the source G16A G16A limits assumed) above, with A16G, H60A counted along it
K31A, sequence (receptor chain, as listed by the source K31A K31A limits assumed): as the sequence (receptor chain, as listed by the source G16A G16A limits assumed) above, with A16G, K31A counted along it
Q91A, sequence (receptor chain, as listed by the source Q91A Q91A limits assumed): as the sequence (receptor chain, as listed by the source G16A G16A limits assumed) above, with A16G, Q91A counted along it
E9A, sequence (receptor chain, as listed by the source limits assumed): as the sequence (receptor chain, as listed by the source G16A G16A limits assumed) above, with E9A, A16G counted along it
Q41A, sequence (receptor chain, as listed by the source Q41A Q41A limits assumed): as the sequence (receptor chain, as listed by the source G16A G16A limits assumed) above, with A16G, Q41A counted along it
R37A, sequence (receptor chain, as listed by the source R37A R37A limits assumed): as the sequence (receptor chain, as listed by the source G16A G16A limits assumed) above, with A16G, R37A counted along it
G89A, sequence (receptor chain, as listed by the source G89A G89A limits assumed): as the sequence (receptor chain, as listed by the source G16A G16A limits assumed) above, with A16G, G89A counted along it
F28A, sequence (receptor chain, as listed by the source F28A F28A limits assumed): as the sequence (receptor chain, as listed by the source G16A G16A limits assumed) above, with A16G, F28A counted along it
R10A, sequence (receptor chain, as listed by the source R10A R10A limits assumed): as the sequence (receptor chain, as listed by the source G16A G16A limits assumed) above, with R10A, A16G counted along it
S63A, sequence (receptor chain, as listed by the source S63A S63A limits assumed): as the sequence (receptor chain, as listed by the source G16A G16A limits assumed) above, with A16G, S63A counted along it
I46A, sequence (receptor chain, as listed by the source I46A I46A limits assumed): as the sequence (receptor chain, as listed by the source G16A G16A limits assumed) above, with A16G, I46A counted along it
W13A, sequence (receptor chain, as listed by the source W13A W13A limits assumed): as the sequence (receptor chain, as listed by the source G16A G16A limits assumed) above, with W13A, A16G counted along it
W90A, sequence (receptor chain, as listed by the source W90A W90A limits assumed): as the sequence (receptor chain, as listed by the source G16A G16A limits assumed) above, with A16G, W90A counted along it
R87A, sequence (receptor chain, as listed by the source R87A R87A limits assumed): as the sequence (receptor chain, as listed by the source G16A G16A limits assumed) above, with A16G, R87A counted along it
Fc-mCD70, sequence (O55237 45-195): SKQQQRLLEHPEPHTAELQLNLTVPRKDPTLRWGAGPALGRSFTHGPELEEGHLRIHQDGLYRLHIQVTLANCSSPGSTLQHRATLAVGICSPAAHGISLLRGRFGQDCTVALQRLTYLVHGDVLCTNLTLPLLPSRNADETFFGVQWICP
K17A, sequence (receptor chain, as listed by the source K17A K17A limits assumed): as the sequence (receptor chain, as listed by the source G16A G16A limits assumed) above, with A16G, K17A counted along it
V30A, sequence (receptor chain, as listed by the source V30A V30A limits assumed): as the sequence (receptor chain, as listed by the source G16A G16A limits assumed) above, with A16G, V30A counted along it
R93A, sequence (receptor chain, as listed by the source R93A R93A limits assumed): as the sequence (receptor chain, as listed by the source G16A G16A limits assumed) above, with A16G, R93A counted along it
K38A, sequence (receptor chain, as listed by the source K38A K38A limits assumed): as the sequence (receptor chain, as listed by the source G16A G16A limits assumed) above, with A16G, K38A counted along it
D43A, sequence (receptor chain, as listed by the source D43A D43A limits assumed): as the sequence (receptor chain, as listed by the source G16A G16A limits assumed) above, with A16G, D43A counted along it
D32A, sequence (receptor chain, as listed by the source D32A D32A limits assumed): as the sequence (receptor chain, as listed by the source G16A G16A limits assumed) above, with A16G, D32A counted along it
Q15A, sequence (receptor chain, as listed by the source Q15A Q15A limits assumed): as the sequence (receptor chain, as listed by the source G16A G16A limits assumed) above, with Q15A, A16G counted along it
N88A, sequence (receptor chain, as listed by the source N88A N88A limits assumed): as the sequence (receptor chain, as listed by the source G16A G16A limits assumed) above, with A16G, N88A counted along it

binding, WT hCD27 = 100 (GM FITC) (Q41A [1]): 76.1% | binding, WT hCD27 = 100 (GM FITC) (Q91A [2]): 120% | binding, WT hCD27 = 100 (GM FITC) (S63A [3]): 163% | binding, WT hCD27 = 100 (GM FITC) (I46A [4]): 82.7% | binding, WT hCD27 = 100 (GM FITC) (H36A [5]): 85.2% | binding, WT hCD27 = 100 (GM FITC) (K38A [6]): 97.7% | binding, WT hCD27 = 100 (GM FITC) (R87A [7]): 108% | binding, WT hCD27 = 100 (GM FITC) (R93A [8]): 91.1% | binding, WT hCD27 = 100 (GM FITC) (G89A [9]): 81.8% | binding, WT hCD27 = 100 (GM FITC) (W13A [10]): 93.4% | binding, WT hCD27 = 100 (GM FITC) (H60A [11]): 120% | binding, WT hCD27 = 100 (GM FITC) (D43A [12]): 93.4% | binding, WT hCD27 = 100 (GM FITC) (N88A [13]): 116% | binding, WT hCD27 = 100 (GM FITC) (P8A [14]): 79.1% | binding, WT hCD27 = 100 (GM FITC) (R37A [15]): 87% | binding, WT hCD27 = 100 (GM FITC) (K31A [16]): 138% | binding, WT hCD27 = 100 (GM FITC) (V30A [17]): 102% | binding, WT hCD27 = 100 (GM FITC) (P44A [18]): 90.5% | binding, WT hCD27 = 100 (GM FITC) (R10A [19]): 113% | binding, WT hCD27 = 100 (GM FITC) (G16A [20]): 97.3% | binding, WT hCD27 = 100 (GM FITC) (E9A [21]): 122% | binding, WT hCD27 = 100 (GM FITC) (F28A [22]): 60% | binding, WT hCD27 = 100 (GM FITC) (V49A [23]): 97% | binding, WT hCD27 = 100 (GM FITC) (W90A [24]): 96.4% | binding, WT hCD27 = 100 (GM FITC) (K17A [25]): 32.4% | binding, WT hCD27 = 100 (GM FITC) (D32A [26]): 43.7% | binding, WT hCD27 = 100 (GM FITC) (Q15A [27]): 32% | binding, WT hCD27 = 100 (GM FITC) (K17A [28]): 6.8% | binding, WT hCD27 = 100 (GM FITC) (D32A [29]): 8.7% | binding, WT hCD27 = 100 (GM FITC) (Q15A [30]): 7.6% | binding, WT hCD27 = 100 (GM FITC) (Q41A [31]): 106% | binding, WT hCD27 = 100 (GM FITC) (Q91A [32]): 146% | binding, WT hCD27 = 100 (GM FITC) (S63A [33]): 158% | binding, WT hCD27 = 100 (GM FITC) (I46A [34]): 129% | binding, WT hCD27 = 100 (GM FITC) (H36A [35]): 111% | binding, WT hCD27 = 100 (GM FITC) (K38A [36]): 104% | binding, WT hCD27 = 100 (GM FITC) (R87A [37]): 143% | binding, WT hCD27 = 100 (GM FITC) (R93A [38]): 120% | binding, WT hCD27 = 100 (GM FITC) (G89A [39]): 100% | binding, WT hCD27 = 100 (GM FITC) (W13A [40]): 89.1% | binding, WT hCD27 = 100 (GM FITC) (H60A [41]): 167% | binding, WT hCD27 = 100 (GM FITC) (D43A [42]): 195% | binding, WT hCD27 = 100 (GM FITC) (N88A [43]): 154% | binding, WT hCD27 = 100 (GM FITC) (P8A [44]): 84.5% | binding, WT hCD27 = 100 (GM FITC) (R37A [45]): 115% | binding, WT hCD27 = 100 (GM FITC) (K31A [46]): 194% | binding, WT hCD27 = 100 (GM FITC) (V30A [47]): 161% | binding, WT hCD27 = 100 (GM FITC) (P44A [48]): 146% | binding, WT hCD27 = 100 (GM FITC) (R10A [49]): 107% | binding, WT hCD27 = 100 (GM FITC) (G16A [50]): 90.8% | binding, WT hCD27 = 100 (GM FITC) (E9A [51]): 98.2% | binding, WT hCD27 = 100 (GM FITC) (F28A [52]): 113% | binding, WT hCD27 = 100 (GM FITC) (V49A [53]): 144% | binding, WT hCD27 = 100 (GM FITC) (W90A [54]): 123%
Substance: 1A4 (mouse IgG1) (antibody)

binding, WT hCD27 = 100 (GM FITC) (Q41A [1]): 71.3% | binding, WT hCD27 = 100 (GM FITC) (Q91A [2]): 111% | binding, WT hCD27 = 100 (GM FITC) (K17A [55]): 106% | binding, WT hCD27 = 100 (GM FITC) (S63A [3]): 149% | binding, WT hCD27 = 100 (GM FITC) (I46A [4]): 82.7% | binding, WT hCD27 = 100 (GM FITC) (H36A [5]): 66.5% | binding, WT hCD27 = 100 (GM FITC) (R87A [7]): 98.8% | binding, WT hCD27 = 100 (GM FITC) (R93A [8]): 91.1% | binding, WT hCD27 = 100 (GM FITC) (D32A [56]): 66.3% | binding, WT hCD27 = 100 (GM FITC) (G89A [9]): 77.5% | binding, WT hCD27 = 100 (GM FITC) (W13A [10]): 86.5% | binding, WT hCD27 = 100 (GM FITC) (H60A [11]): 126% | binding, WT hCD27 = 100 (GM FITC) (D43A [12]): 92.5% | binding, WT hCD27 = 100 (GM FITC) (N88A [13]): 104% | binding, WT hCD27 = 100 (GM FITC) (P8A [14]): 62.2% | binding, WT hCD27 = 100 (GM FITC) (Q15A [57]): 118% | binding, WT hCD27 = 100 (GM FITC) (K31A [16]): 133% | binding, WT hCD27 = 100 (GM FITC) (V30A [17]): 95.6% | binding, WT hCD27 = 100 (GM FITC) (P44A [18]): 91.7% | binding, WT hCD27 = 100 (GM FITC) (R10A [19]): 99% | binding, WT hCD27 = 100 (GM FITC) (G16A [20]): 102% | binding, WT hCD27 = 100 (GM FITC) (E9A [21]): 109% | binding, WT hCD27 = 100 (GM FITC) (F28A [22]): 58.2% | binding, WT hCD27 = 100 (GM FITC) (V49A [23]): 92.1% | binding, WT hCD27 = 100 (GM FITC) (W90A [24]): 85.7% | binding, WT hCD27 = 100 (GM FITC) (K38A [58]): 44.7% | binding, WT hCD27 = 100 (GM FITC) (R37A [59]): 35% | binding, WT hCD27 = 100 (GM FITC) (K38A [60]): 31.6% | binding, WT hCD27 = 100 (GM FITC) (R37A [61]): 6.2% | binding, WT hCD27 = 100 (GM FITC) (Q41A [31]): 113% | binding, WT hCD27 = 100 (GM FITC) (Q91A [32]): 149% | binding, WT hCD27 = 100 (GM FITC) (K17A [62]): 98% | binding, WT hCD27 = 100 (GM FITC) (S63A [33]): 153% | binding, WT hCD27 = 100 (GM FITC) (I46A [34]): 137% | binding, WT hCD27 = 100 (GM FITC) (H36A [35]): 88.5% | binding, WT hCD27 = 100 (GM FITC) (R87A [37]): 153% | binding, WT hCD27 = 100 (GM FITC) (R93A [38]): 122% | binding, WT hCD27 = 100 (GM FITC) (D32A [63]): 118% | binding, WT hCD27 = 100 (GM FITC) (G89A [39]): 116% | binding, WT hCD27 = 100 (GM FITC) (W13A [40]): 90.7% | binding, WT hCD27 = 100 (GM FITC) (H60A [41]): 185% | binding, WT hCD27 = 100 (GM FITC) (D43A [42]): 201% | binding, WT hCD27 = 100 (GM FITC) (N88A [43]): 153% | binding, WT hCD27 = 100 (GM FITC) (P8A [44]): 68.5% | binding, WT hCD27 = 100 (GM FITC) (Q15A [64]): 107% | binding, WT hCD27 = 100 (GM FITC) (K31A [46]): 207% | binding, WT hCD27 = 100 (GM FITC) (V30A [47]): 166% | binding, WT hCD27 = 100 (GM FITC) (P44A [48]): 159% | binding, WT hCD27 = 100 (GM FITC) (R10A [49]): 104% | binding, WT hCD27 = 100 (GM FITC) (G16A [50]): 94.7% | binding, WT hCD27 = 100 (GM FITC) (E9A [51]): 96.6% | binding, WT hCD27 = 100 (GM FITC) (F28A [52]): 115% | binding, WT hCD27 = 100 (GM FITC) (V49A [53]): 151% | binding, WT hCD27 = 100 (GM FITC) (W90A [54]): 130%
Substance: 9F4 (mouse IgG2a) (antibody)

cells in the + gate (human CD27 (human) [65]): 58.9 | GM FITC [66]: 1060 | cells in the + gate [67]: 52.5 | GM FITC (human CD27 (human) [68]): 1280
Substance: Fc-mCD70 (from UniProt O55237 45-195) (Fc fusion)
